B1: Sigma factor AlgU negative regulatory protein (Pseudomonas aeruginosa (strain ATCC 15692 / PAO1 / 1C / PRS 101 / LMG 12228)), P38107 (parent)
chain: MSREALQETLSAVMDNEADELELRRVLAACGEDAELRSTWSRYQLARSVMHREPTLPKLDIAAAVSAALADEAAPPKAEKGPWRMVGRLAVAASVTLAVLAGVRLYNQNDALPQMAQQGTTPQIALPQVKGPAVLAGYSEEQGAPQVITNSSSSDTRWHEQRLPIYLRQHVQQSAVSGTESALPYARAASLENR
partner: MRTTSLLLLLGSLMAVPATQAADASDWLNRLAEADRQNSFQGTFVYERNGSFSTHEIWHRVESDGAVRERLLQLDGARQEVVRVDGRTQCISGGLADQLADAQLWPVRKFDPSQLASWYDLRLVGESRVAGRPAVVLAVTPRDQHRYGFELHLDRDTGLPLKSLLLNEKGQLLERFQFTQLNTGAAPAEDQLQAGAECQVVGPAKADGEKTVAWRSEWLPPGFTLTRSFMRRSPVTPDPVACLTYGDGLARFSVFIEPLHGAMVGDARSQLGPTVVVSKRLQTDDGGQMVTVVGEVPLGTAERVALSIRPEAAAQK

Variants of: B1
Settings: with mucb_pseae mucB

Row | Variant | effect of a mutation on the interaction
1 | S154C | decreasing interaction strength

Source: IntAct's records for PubMed 19298369
